US20030068675, “Position dependent recognition of GNN nucleotide triplets by zinc fingers” (published 2003)

Legend:
Assay in all cases: EMSA
Details in all cases: tags: MBP fusion
ZFP SBS#704 = ZFP SBS#704 (synthetic)
Summary of the method: (§1)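 Purified ZFP was titrated against labeled double-stranded target (1 nM or lower, at least 10-fold below expected Kd) carrying the natural binding site with flanks. Binding buffer was 10 mM Tris pH 7.5, 100 mM KCl, 1 mM MgCl2, 0.1 mM ZnCl2, 5 mM DTT, 10% glycerol, 0.02% BSA, with equilibration for at least 45 min. Bound and free target were separated on a 10% polyacrylamide gel.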

ZFP SBS#740 = target: T1, ZFP SBS#740 (synthetic)
T1 chain: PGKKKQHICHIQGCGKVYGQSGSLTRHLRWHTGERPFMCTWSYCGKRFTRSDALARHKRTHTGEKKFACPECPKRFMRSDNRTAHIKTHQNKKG
Summary of the method: as §1

ZFP SBS#607 = ZFP SBS#607 (synthetic)
Summary of the method: as §1

ZFP SBS#741 = ZFP SBS#741 (synthetic)
ZFP SBS#741 (synthetic), sequence (chain, as listed by the source): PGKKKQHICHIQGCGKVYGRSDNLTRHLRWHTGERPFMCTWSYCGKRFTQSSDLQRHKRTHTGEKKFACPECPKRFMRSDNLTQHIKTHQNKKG
Summary of the method: as §1

ZFP SBS#567 = target: T2, ZFP SBS#567 (synthetic)
T2 chain: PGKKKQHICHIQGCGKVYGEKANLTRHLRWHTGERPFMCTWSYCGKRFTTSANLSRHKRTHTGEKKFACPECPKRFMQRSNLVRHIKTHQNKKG
Summary of the method: as §1

ZFP SBS#428 = ZFP SBS#428 (synthetic)
ZFP SBS#428 (synthetic), sequence (chain, as listed by the source): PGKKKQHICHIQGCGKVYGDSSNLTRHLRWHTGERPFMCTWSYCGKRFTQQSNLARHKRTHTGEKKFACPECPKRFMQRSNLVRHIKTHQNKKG
Summary of the method: as §1

ZFP SBS#429 = ZFP SBS#429 (synthetic)
ZFP SBS#429 (synthetic), sequence (chain, as listed by the source): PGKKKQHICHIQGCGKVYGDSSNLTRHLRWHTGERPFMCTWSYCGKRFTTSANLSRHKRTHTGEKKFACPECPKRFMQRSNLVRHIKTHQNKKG
Summary of the method: as §1

ZFP SBS#728 = target: T3, ZFP SBS#728 (synthetic)
T3 chain: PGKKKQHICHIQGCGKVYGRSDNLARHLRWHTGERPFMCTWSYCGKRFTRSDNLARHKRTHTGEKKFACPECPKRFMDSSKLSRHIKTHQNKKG
Summary of the method: as §1

ZFP SBS#751 = ZFP SBS#751 (synthetic)
ZFP SBS#751 (synthetic), sequence (chain, as listed by the source): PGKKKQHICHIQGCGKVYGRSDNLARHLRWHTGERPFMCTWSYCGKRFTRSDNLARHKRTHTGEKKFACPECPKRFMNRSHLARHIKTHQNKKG
Summary of the method: as §1

ZFP SBS#713 = target: T4, ZFP SBS#713 (synthetic)
T4 chain: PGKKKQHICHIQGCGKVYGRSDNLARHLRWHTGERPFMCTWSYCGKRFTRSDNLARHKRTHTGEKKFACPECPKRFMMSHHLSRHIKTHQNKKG
Summary of the method: as §1

ZFP SBS#712 = target: T5, ZFP SBS#712 (synthetic)
T5 chain: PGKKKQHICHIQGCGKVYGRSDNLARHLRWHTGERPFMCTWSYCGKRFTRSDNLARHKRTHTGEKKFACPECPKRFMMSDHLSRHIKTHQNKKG
Summary of the method: as §1

ZFP SBS#760 = target: T6, ZFP SBS#760 (synthetic)
T6 chain: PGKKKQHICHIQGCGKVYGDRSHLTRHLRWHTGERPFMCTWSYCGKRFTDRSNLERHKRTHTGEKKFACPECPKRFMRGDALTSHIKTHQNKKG
Summary of the method: as §1

ZFP SBS#759 = target: T7, ZFP SBS#759 (synthetic)
T7 chain: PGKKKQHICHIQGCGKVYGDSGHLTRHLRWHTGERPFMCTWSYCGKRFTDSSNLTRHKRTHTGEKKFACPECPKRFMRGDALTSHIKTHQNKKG
Summary of the method: as §1

ZFP SBS#749 = target: T8, ZFP SBS#749 (synthetic)
T8 chain: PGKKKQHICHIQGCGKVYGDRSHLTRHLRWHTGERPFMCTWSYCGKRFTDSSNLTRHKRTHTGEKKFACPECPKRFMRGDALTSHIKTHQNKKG
Summary of the method: as §1

ZFP SBS#748 = target: T9, ZFP SBS#748 (synthetic)
T9 chain: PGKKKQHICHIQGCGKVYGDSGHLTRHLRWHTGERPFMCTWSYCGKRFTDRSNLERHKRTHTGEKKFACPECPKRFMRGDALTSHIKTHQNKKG
Summary of the method: as §1

ZFP SBS#777 = target: T10, ZFP SBS#777 (synthetic)
T10 chain: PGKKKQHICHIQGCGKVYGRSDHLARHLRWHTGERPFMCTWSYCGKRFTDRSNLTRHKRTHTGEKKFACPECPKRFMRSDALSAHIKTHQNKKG
Summary of the method: as §1

ZFP SBS#776 = target: T11, ZFP SBS#776 (synthetic)
T11 chain: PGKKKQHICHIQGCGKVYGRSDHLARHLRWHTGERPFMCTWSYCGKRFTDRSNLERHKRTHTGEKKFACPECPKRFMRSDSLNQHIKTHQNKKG
Summary of the method: as §1

ZFP SBS#736 = target: T12, ZFP SBS#736 (synthetic, UniProt P08047)
T12 chain: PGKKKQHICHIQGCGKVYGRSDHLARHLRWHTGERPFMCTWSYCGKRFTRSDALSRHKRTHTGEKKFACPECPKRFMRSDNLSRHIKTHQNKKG
Summary of the method: as §1

ZFP SBS#752 = target: T13, ZFP SBS#752 (synthetic, UniProt P08047)
T13 chain: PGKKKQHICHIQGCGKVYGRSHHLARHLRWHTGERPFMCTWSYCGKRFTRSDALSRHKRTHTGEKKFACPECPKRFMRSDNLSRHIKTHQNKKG
Summary of the method: as §1

ZFP SBS#747 = target: T14, ZFP SBS#747 (synthetic)
T14 chain: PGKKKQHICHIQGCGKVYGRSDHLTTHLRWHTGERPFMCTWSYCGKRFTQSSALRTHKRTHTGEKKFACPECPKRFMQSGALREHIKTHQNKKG
Summary of the method: as §1

ZFP SBS#762 = ZFP SBS#762 (synthetic, UniProt P08047)
ZFP SBS#762, sequence (P08047 other isoform, or with tags, fused parts or gaps): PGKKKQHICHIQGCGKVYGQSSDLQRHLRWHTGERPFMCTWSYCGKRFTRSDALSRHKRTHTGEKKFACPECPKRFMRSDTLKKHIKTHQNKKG
Summary of the method: as §1

ZFP SBS#735 = target: T15, ZFP SBS#735 (synthetic)
T15 chain: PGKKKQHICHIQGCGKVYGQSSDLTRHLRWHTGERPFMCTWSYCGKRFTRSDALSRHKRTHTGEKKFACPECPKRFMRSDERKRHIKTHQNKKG
Summary of the method: as §1

ZFP SBS#761 = target: T16, ZFP SBS#761 (synthetic)
T16 chain: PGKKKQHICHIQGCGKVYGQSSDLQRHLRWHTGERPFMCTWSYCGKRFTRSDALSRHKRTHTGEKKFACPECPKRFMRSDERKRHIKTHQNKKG
Summary of the method: as §1

ZFP SBS#727 = ZFP SBS#727 (synthetic, UniProt P08047)
ZFP SBS#727, sequence (P08047 other isoform, or with tags, fused parts or gaps): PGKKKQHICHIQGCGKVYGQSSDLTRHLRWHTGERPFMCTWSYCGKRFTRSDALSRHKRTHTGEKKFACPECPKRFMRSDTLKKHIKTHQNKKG
Summary of the method: as §1

ZFP SBS#746 = ZFP SBS#746 (synthetic)
ZFP SBS#746 (synthetic), sequence (chain, as listed by the source): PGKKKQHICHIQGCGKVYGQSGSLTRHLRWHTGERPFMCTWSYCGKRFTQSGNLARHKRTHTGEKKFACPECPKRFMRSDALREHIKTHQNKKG
Summary of the method: as §1

ZFP SBS#734 = ZFP SBS#734 (synthetic)
ZFP SBS#734 (synthetic), sequence (chain, as listed by the source): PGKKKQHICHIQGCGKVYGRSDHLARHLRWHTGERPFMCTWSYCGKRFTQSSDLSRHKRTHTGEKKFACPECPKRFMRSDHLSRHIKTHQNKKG
Summary of the method: as §1

ZFP SBS#430 = target: T17, ZFP SBS#430 (synthetic)
T17 chain: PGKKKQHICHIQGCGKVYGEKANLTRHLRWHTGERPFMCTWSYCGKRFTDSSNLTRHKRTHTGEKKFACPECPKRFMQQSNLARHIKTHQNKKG
Summary of the method: as §1

ZFP SBS#568 = target: T18, ZFP SBS#568 (synthetic)
T18 chain: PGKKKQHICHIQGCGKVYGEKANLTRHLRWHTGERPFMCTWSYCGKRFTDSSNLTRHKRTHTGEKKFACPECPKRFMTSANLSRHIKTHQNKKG
Summary of the method: as §1

ZFP SBS#779 = ZFP SBS#779 (synthetic)
Summary of the method: as §1

ZFP SBS#780 = ZFP SBS#780 (synthetic)
ZFP SBS#780 (synthetic), sequence (chain, as listed by the source): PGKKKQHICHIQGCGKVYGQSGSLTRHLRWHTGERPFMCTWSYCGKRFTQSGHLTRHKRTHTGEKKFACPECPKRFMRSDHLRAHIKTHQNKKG
Summary of the method: as §1

ZFP SBS#757 = target: T19, ZFP SBS#757 (synthetic, UniProt P08047)
T19 chain: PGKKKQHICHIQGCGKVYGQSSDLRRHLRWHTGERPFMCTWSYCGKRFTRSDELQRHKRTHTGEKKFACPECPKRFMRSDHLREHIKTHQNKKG
Summary of the method: as §1

ZFP SBS#758 = target: T20, ZFP SBS#758 (synthetic, UniProt P08047)
T20 chain: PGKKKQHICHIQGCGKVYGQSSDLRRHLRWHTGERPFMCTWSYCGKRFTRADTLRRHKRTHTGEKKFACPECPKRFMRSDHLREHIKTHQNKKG
Summary of the method: as §1

ZFP SBS#733 = ZFP SBS#733 (synthetic)
Summary of the method: as §1

ZFP SBS#732 = ZFP SBS#732 (synthetic)
ZFP SBS#732 (synthetic), sequence (chain, as listed by the source): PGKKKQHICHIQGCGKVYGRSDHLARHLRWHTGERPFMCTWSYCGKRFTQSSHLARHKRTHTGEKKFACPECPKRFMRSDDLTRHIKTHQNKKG
Summary of the method: as §1

ZFP SBS#744 = target: T21, ZFP SBS#744 (synthetic)
T21 chain: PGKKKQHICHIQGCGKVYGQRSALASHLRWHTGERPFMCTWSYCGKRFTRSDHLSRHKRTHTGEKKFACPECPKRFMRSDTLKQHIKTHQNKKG
Summary of the method: as §1

ZFP SBS#742 = target: T22, ZFP SBS#742 (synthetic)
T22 chain: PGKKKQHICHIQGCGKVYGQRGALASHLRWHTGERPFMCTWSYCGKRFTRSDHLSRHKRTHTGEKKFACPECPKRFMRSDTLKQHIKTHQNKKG
Summary of the method: as §1

ZFP SBS#745 = target: T23, ZFP SBS#745 (synthetic)
T23 chain: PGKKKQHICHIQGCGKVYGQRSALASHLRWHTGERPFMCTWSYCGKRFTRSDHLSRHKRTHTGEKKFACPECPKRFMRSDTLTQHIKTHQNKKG
Summary of the method: as §1

ZFP SBS#743 = target: T24, ZFP SBS#743 (synthetic)
T24 chain: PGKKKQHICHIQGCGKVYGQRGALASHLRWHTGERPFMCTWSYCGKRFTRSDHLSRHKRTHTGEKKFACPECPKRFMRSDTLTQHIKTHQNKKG
Summary of the method: as §1

ZFP SBS#704 (synthetic), sequence (chain, as listed by the source): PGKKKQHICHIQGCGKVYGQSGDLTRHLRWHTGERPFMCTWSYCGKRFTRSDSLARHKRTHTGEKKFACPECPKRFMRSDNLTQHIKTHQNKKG

B1: AAGGTGGCAG (dsDNA)
DNA 1: AAGGTGGCAG
DNA 2: CTGCCACCTT
Kd (ZFP SBS#704): 5 nM | Kd (ZFP SBS#740): 12.5 nM | Kd (ZFP SBS#607): 6.5 nM

B2: AAGGCTGAGA (dsDNA)
DNA 1: AAGGCTGAGA
DNA 2: TCTCAGCCTT
Kd (ZFP SBS#741): 15 nM

B3: GAAGATGAC (dsDNA)
DNA 1: GAAGATGAC
DNA 2: GTCATCTTC
Kd (ZFP SBS#567): 47.5 nM | Kd (ZFP SBS#428): 120 nM | Kd (ZFP SBS#429): 50 nM

B4: GGTGAGGAGT (dsDNA)
DNA 1: GGTGAGGAGT
DNA 2: ACTCCTCACC
Kd (ZFP SBS#728): 15 nM | Kd (ZFP SBS#751): 7 nM | Kd (ZFP SBS#713): 0.15 nM | Kd (ZFP SBS#712): 9.5 nM

B5: TTGGACGGCG (dsDNA)
DNA 1: TTGGACGGCG
DNA 2: CGCCGTCCAA
Kd (ZFP SBS#760): 148 nM | Kd (ZFP SBS#759): 37 nM | Kd (ZFP SBS#749): 11.3 nM | Kd (ZFP SBS#748): 112 nM

B6: ATGGACGGGT (dsDNA)
DNA 1: ATGGACGGGT
DNA 2: ACCCGTCCAT
Kd (ZFP SBS#777): 3.4 nM | Kd (ZFP SBS#776): 0.4 nM

B7: GAGGTGGGGA (dsDNA)
DNA 1: GAGGTGGGGA
DNA 2: TCCCCACCTC
Kd (ZFP SBS#736): 0.47 nM | Kd (ZFP SBS#752): 31 nM

B8: CTATTTTGGG (dsDNA)
DNA 1: CTATTTTGGG
DNA 2: CCCAAAATAG
Kd (ZFP SBS#747): 2000 nM

B9: GCGGTGGCTC (dsDNA)
DNA 1: GCGGTGGCTC
DNA 2: GAGCCACCGC
Kd (ZFP SBS#762): 18 nM | Kd (ZFP SBS#735): 0.05 nM | Kd (ZFP SBS#761): 6 nM | Kd (ZFP SBS#727): 0.1 nM

B10: CTGGAAGCAT (dsDNA)
DNA 1: CTGGAAGCAT
DNA 2: ATGCTTCCAG
Kd (ZFP SBS#746): 2.07 nM

B11: GGGGCTGGGT (dsDNA)
DNA 1: GGGGCTGGGT
DNA 2: ACCCAGCCCC
Kd (ZFP SBS#734): 0.25 nM

B12: GATGACGAC (dsDNA)
DNA 1: GATGACGAC
DNA 2: GTCGTCATC
Kd (ZFP SBS#430): 250 nM | Kd (ZFP SBS#568): 300 nM

B13: CGGGGAGCAG (dsDNA)
DNA 1: CGGGGAGCAG
DNA 2: CTGCTCCCCG
Kd (ZFP SBS#779): 0.5 nM | Kd (ZFP SBS#780): 0.5 nM

B14: CGGGCGGCTG (dsDNA)
DNA 1: CGGGCGGCTG
DNA 2: CAGCCGCCCG
Kd (ZFP SBS#757): 14.5 nM | Kd (ZFP SBS#758): 16.5 nM

B15: GCGGGTGGGG (dsDNA)
DNA 1: GCGGGTGGGG
DNA 2: CCCCACCCGC
Kd (ZFP SBS#733): 0.32 nM | Kd (ZFP SBS#732): 22.5 nM

B16: ACGGGGTTAT (dsDNA)
DNA 1: ACGGGGTTAT
DNA 2: ATAACCCCGT
Kd (ZFP SBS#744): 8.33 nM | Kd (ZFP SBS#742): 29 nM | Kd (ZFP SBS#745): 12.5 nM | Kd (ZFP SBS#743): 10 nM
